{"source": "patent US20100323957A1", "about": "“NOVEL ASSAY FOR INHIBITORS OF EGFR” (THE REGENTS OF THE UNIVERSITY OF CALIFORNIA THE OFFICE OF …, priority 2007, published 2010)", "molecules": {"B1": {"name": "MIG6(segments 1-2): longer MIG6 peptide, residues 336-412, expressed as Trp DLE fusion; M346 mutated to leucine (protein)", "peptide": "KSLPSYLNGVLPPTQSFAPDPKYVSSKALQRQNSEGSASKVPCILPIIENGKKVSSTHYYLLPERPPYLDKYEKFFR"}, "B2": {"name": "MIG6(segments 1-2) Y358A: MIG6 residues 336-412 bearing a mutation within segment 1 (Y358A) (protein)", "peptide": "B1 peptide with Y23A"}, "B3": {"name": "MIG6(M346A): full-length MIG6 with M346A mutation in segment 1, co-expressed in cells (protein)", "chain": "MSIAGVAAQEIRVPLKTGFLHNGRAMGNMRKTYWSSRSEFKNNFLNIDPITMAYSLNSSAQERLIPLGHASKSAPMNGHCFAENGPSQKSSLPPLLIPPSENLGPHEEDQVVCGFKKLTVNGVCASTPPLTPIKNSPSLFPCAPLCERGSRPLPPLPISEALSLDDTDCEVEFLTSSDTDFLLEDSTLSDFKYDVPGRRSFRGCGQINYAYFDTPAVSAADLSYVSDQNGGVPDPNPPPPQTHRRLRRSHSGPAGSFNKPAIRISNCCIHRASPNSDEDKPEVPPRVPIPPRPVKPDYRRWSAEVTSSTYSDEDRPPKVPPREPLSPSNSRTPSPKSLPSYLNGVAPPTQSFAPDPKYVSSKALQRQNSEGSASKVPCILPIIENGKKVSSTHYYLLPERPPYLDKYEKFFREAEETNGGAQIQPLPADCGISSATEKPDSKTKMDLGGHVKRKHLSYVVSP", "modifications": "left off: small tags and cut ends", "notes": "full-length MIG6 with M346A mutation in segment 1, co-expressed in cells"}, "B4": {"name": "MIG6(Y358A): full-length MIG6 with Y358A mutation in segment 1, co-expressed in cells (protein)", "chain": "B3 chain with A346M, Y358A", "modifications": "left off: small tags and cut ends", "notes": "full-length MIG6 with Y358A mutation in segment 1, co-expressed in cells"}, "B5": {"name": "MIG6(F352A): full-length MIG6 with F352A mutation in segment 1, co-expressed in cells (protein)", "chain": "B3 chain with A346M, F352A", "modifications": "left off: small tags and cut ends", "notes": "full-length MIG6 with F352A mutation in segment 1, co-expressed in cells"}}, "key": {"[1]": {"target": "T1, wild-type EGFR kinase domain in solution (Homo sapiens, UniProt P00533)", "T1 construct": "DNA encoding residues 672-998 of human EGFR was cloned into pFAST BAC HT; made in house; host or cells: Sf9 insect cells (baculovirus)", "experiment": "Kinase assay in solution, wild-type kinase domain (basal activity)", "format": "biochemical", "settings": "result in words", "description": "(§1) Kinase assays were performed using methods known in the art and described herein. The substrate peptide was kept at 1 mM in all the experiments. The reported rates are the initial velocities normalized by the kinase concentrations. The wild-type kinase concentrations in the vesicle-based and solution-based assays were […] respectively.\n(§2) A continuous enzyme-coupled kinase assay was performed to measure the kinase activity of the proteins as described in Barker et al., ((1995) Biochemistry, Vol. 34(54): 14843-51), with modifications, as described herein. The ATP concentration was kept to 0.5 mM.\n(§3) The buffer used contained 10 mM MgCl2, 20 mM Tris, and pH 7.5. […] The substrate peptide was derived from the region spanning Y1173 in EGFR ([…]). All proteins used in this assay contained the N-terminal (His)6 tag unless otherwise noted.\nThe protein concentrations of the EGFR kinase domain used in the assay ranged from 3.5 to 14 μM. The total concentration of the DOGS-NTA-Ni in the bulk solution was kept to 12.5 μM in all assays with DOG-NTA-Ni-containing vesicles. For assays of the kinase domain attached to vesicles, the protein and vesicles were preincubated at 4° C. for ˜5 min."}, "[2]": {"target": "T2, EGFR kinase domain L834R mutant (Homo sapiens, UniProt P00533, L858R)", "T2 construct": "DNA encoding residues 672-998 of human EGFR was cloned into pFAST BAC HT; made in house; host or cells: Sf9 insect cells (baculovirus)", "experiment": "Kinase assay in solution, L834R mutant kinase domain", "format": "biochemical", "settings": "for IC50: L834R at 200 nM, MnCl2 10 mM, read-out: IC50 for inhibition of L834R mutant kinase domain", "description": "To test the role of segment 2, we produced a longer peptide (residues 336-412, MIG6(segments 1-2)), and analyzed its effect on a variant of the EGFR kinase domain that contains a mutation (L834R) that renders it constitutively active in the absence of concentration on vesicles. MIG6(segments 1-2) inhibits this mutant kinase domain with an IC50 value of ˜200 nM (FIG. 25a). MIG6(segments 1-2) bearing a mutation within segment 1 (Y358A) inhibited L834R much less efficiently (IC50˜5 μM).\nas §1, §2, §3"}, "full-length EGFR": {"target": "T3, full-length EGFR (Homo sapiens, UniProt P00533)", "T3 construct": "Cos-7 cells co-transfected with constructs containing full-length EGFR and MIG6; expressed in transfected cells; host or cells: Cos-7", "experiment": "Cell-based assay of EGFR autophosphorylation, Cos-7 cells co-transfected with EGFR and MIG6", "settings": "co-expression with EGFR, EGF 50 ng/ml, western blot", "source_text": "The wild-type and mutant forms of the EGFR kinase domain were expressed and purified using methods known in the art and described in Zhang et al., (2006). The 60-residue MIG6 peptide was expressed in bacteria as a glutathione S-transferase (GST)-fusion protein, purified and treated with the TEV protease to remove the GST-moiety. The wild-type and Y358A mutant MIG6(segments 1-2) peptides were fused to a Trp DLE leader peptide and expressed as inclusion bodies and purified as described. All other MIG6 peptides were produced using solid phase synthesis. […] The binding affinities between the kinase domain and fluorescein-labeled MIG6 peptides were measured by monitoring the change of fluorescence anisotropy during the titration and fitting the data to a single-site binding model. Kinase assays in solution and on vesicle were performed using methods known in the art and described herein. Cell-based inhibition assays were performed using Cos-7 cells co-transfected with constructs containing full-length EGFR and MIG6.\nFor cell-based assays, Cos-7 cells were co-transfected using Fugene 6 (Roche) with the DNA encoding the N-terminal Flag-tagged EGFR in pcDNA3.1 constructs and the wild-type or mutants of the MIG6 genes with a C-terminal Myc tag (also in pcDNA3.1). Cells were cultured for 36 h after transfection and serum-starved for 12 h. Cells were treated with EGF (50 ng ml^−1) for ˜5 min at 37° C., lysed and subjected to western blot analyses. The levels of total EGFR, EGFR autophosphorylation and MIG6 were probed using the anti-EGFR antibody SC03 (Santa Cruz), anti-phosphotyrosine antibody 4G10 (Upstate) and an anti-Myc antibody (Cell Signalling), respectively."}}, "note": "Changes are numbered by the printed parent chain. In names and notes the source's numbering stands."}
{"molecule": "B1", "values": [{"measurement": "inhibition of basal activity of wild-type kinase domain in solution", "setting": "[1]", "result": "much less potent"}, {"measurement": "IC50", "setting": "[2]", "result": "~200", "unit": "nM"}, {"measurement": "inhibition of L834R mutant kinase domain", "setting": "[2]; result in words", "result": "much more strongly"}]}
{"molecule": "B2", "values": [{"measurement": "inhibition of basal activity of wild-type kinase domain in solution", "setting": "[1]", "result": "does not show any inhibition"}, {"measurement": "IC50", "setting": "[2]", "result": "~5000", "unit": "nM"}]}
{"molecule": "B3", "values": [{"measurement": "EGF-induced autophosphorylation of EGFR", "setting": "full-length EGFR", "result": "abolishes this effect"}]}
{"molecule": "B4", "values": [{"measurement": "EGF-induced autophosphorylation of EGFR", "setting": "full-length EGFR", "result": "abolishes this effect"}]}
{"molecule": "B5", "values": [{"measurement": "EGF-induced autophosphorylation of EGFR", "setting": "full-length EGFR", "result": "abolishes this effect"}]}
